Where a chain is given by its changes, count along the chain named. Numbers in names are those of the source.

B1: C5A (XPA23) VH F33N (antibody, V domains shown)
VH: EVQLLESGGGLVQPGGSLRLSCAASGFTFSKYNMFWVRQAPGKGLEWVSVISPSGGMTRYADSVKGRFTISRDNSKNTLYLQMNSLRAEDTAVYYCARVGYGGNSDYWGQGTLVTVSS
VL: DIQMTQSPSSVSASVGDRLTIICRASQDINRWLAWYQQTPGNAPKLLIHSATSLQSGVPSRFSGSGSGTDFTLTINSLQPEDFATYYCQQADSFPLTFGGGTKVEIK
B2: C5A (XPA23) VH F33Q (antibody, V domains shown)
VH: B1 VH with N33Q
VL: B1 VL
B3: C5A (XPA23) VH S30A (antibody, V domains shown)
VH: B1 VH with S30A, N33F
VL: B1 VL
B4: C5A (XPA23) VH Y32V (antibody, V domains shown)
VH: B1 VH with Y32V, N33F
VL: B1 VL
B5: C5A (XPA23) VH Y32G (antibody, V domains shown)
VH: B1 VH with Y32G, N33F
VL: B1 VL
B6: C5A (XPA23) VH S30G (antibody, V domains shown)
VH: B1 VH with S30G, N33F
VL: B1 VL
B7: C5A (XPA23) VH F33P (antibody, V domains shown)
VH: B1 VH with N33P
VL: B1 VL
B8: C5A (XPA23) VH F33I (antibody, V domains shown)
VH: B1 VH with N33I
VL: B1 VL
B9: C5A (XPA23) VH K31I (antibody, V domains shown)
VH: B1 VH with K31I, N33F
VL: B1 VL
B10: C5A (XPA23) VH F33A (antibody, V domains shown)
VH: B1 VH with N33A
VL: B1 VL
B11: C5A (XPA23) VH K31L (antibody, V domains shown)
VH: B1 VH with K31L, N33F
VL: B1 VL
B12: C5A (XPA23) VH F33G (antibody, V domains shown)
VH: B1 VH with N33G
VL: B1 VL
B13: C5A (XPA23) VH Y32L (antibody, V domains shown)
VH: B1 VH with Y32L, N33F
VL: B1 VL
B14: C5A (XPA23) VH Y32F (antibody, V domains shown)
VH: B1 VH with Y32F, N33F
VL: B1 VL
B15: C5A (XPA23) VH S30I (antibody, V domains shown)
VH: B1 VH with S30I, N33F
VL: B1 VL
B16: C5A (XPA23) VH F33Y (antibody, V domains shown)
VH: B1 VH with N33Y
VL: B1 VL
B17: C5A (XPA23) VH K31W (antibody, V domains shown)
VH: B1 VH with K31W, N33F
VL: B1 VL
B18: C5A (XPA23) VH F33V (antibody, V domains shown)
VH: B1 VH with N33V
VL: B1 VL
B19: C5A (XPA23) VH F33L (antibody, V domains shown)
VH: B1 VH with N33L
VL: B1 VL
B20: C5A (XPA23) VH S30L (antibody, V domains shown)
VH: B1 VH with S30L, N33F
VL: B1 VL
B21: C5A (XPA23) VH Y32P (antibody, V domains shown)
VH: B1 VH with Y32P, N33F
VL: B1 VL
B22: C5A (XPA23) VH F33W (antibody, V domains shown)
VH: B1 VH with N33W
VL: B1 VL
B23: C5A (XPA23) VH S30W (antibody, V domains shown)
VH: B1 VH with S30W, N33F
VL: B1 VL
B24: C5A (XPA23) VH K31V (antibody, V domains shown)
VH: B1 VH with K31V, N33F
VL: B1 VL
B25: C5A (XPA23) VH K31F (antibody, V domains shown)
VH: B1 VH with K31F, N33F
VL: B1 VL

In one assay the target is binding partner of C5A (XPA23). Briefly: Biacore K-off. (In SPR one partner is held on a chip, and binding of the other changes the refractive index at the surface.)
For the molecule B1, the fold difference in affinity vs original stood at 0.97 fold.

In the case of B2, the fold difference in affinity vs original amounted to 0.78 fold.

On to B3, for which the fold difference in affinity vs original stood at 0.77 fold.

Take B4: the fold difference in affinity vs original was 1.07 fold.

As for B5, the fold difference in affinity vs original amounted to 1 fold.

For the molecule B6, the fold difference in affinity vs original came out at 0.13 fold.

For B7, the fold difference in affinity vs original was 0.91 fold.

With B8, the fold difference in affinity vs original was 0.75 fold.

As to B9, the fold difference in affinity vs original amounted to 0.74 fold.

As for B10, the fold difference in affinity vs original was 0.75 fold.

Take B11: the fold difference in affinity vs original amounted to 1.08 fold.

Regarding B12, the fold difference in affinity vs original amounted to 0.76 fold.

For the molecule B13, the fold difference in affinity vs original was 0.75 fold.

As to B14, the fold difference in affinity vs original came out at 0.75 fold.

Consider B15, for which the fold difference in affinity vs original was found to be 0.08 fold.

Consider B16, for which the fold difference in affinity vs original was 0.77 fold.

Consider B17, for which the fold difference in affinity vs original turned out to be 0.84 fold.

Take B18: the fold difference in affinity vs original came out at 0.76 fold.

On to B19, for which the fold difference in affinity vs original was found to be 0.88 fold.

As for B20, the fold difference in affinity vs original stood at 0.91 fold.

Turning to B21, the fold difference in affinity vs original amounted to 0.68 fold.

With B22, the fold difference in affinity vs original is 0.79 fold.

For B23, the fold difference in affinity vs original was determined as 0.77 fold.

On to B24, for which the fold difference in affinity vs original turned out to be 0.81 fold.

On to B25, for which the fold difference in affinity vs original is 0.05 fold.

A further assay concerns the target binding partner of C5A (XPA23). Put plainly: Biacore.
As to B1, the fold affinity vs original is 0.97 fold.

Consider B2, for which the fold affinity vs original is 0.78 fold.

With B3, the fold difference in affinity vs original came to 0.77 fold.

As for B4, the fold difference in affinity vs original was found to be 1.07 fold.

As for B5, the fold difference in affinity vs original is 1 fold.

B6: the fold difference in affinity vs original came to 0.13 fold.

For the molecule B7, the fold difference in affinity vs original stood at 0.91 fold.

Turning to B8, the fold difference in affinity vs original stood at 0.75 fold.

As to B9, the fold difference in affinity vs original amounted to 0.74 fold.

With B10, the fold difference in affinity vs original was found to be 0.75 fold.

Regarding B11, the fold difference in affinity vs original stood at 1.08 fold.

As for B12, the fold difference in affinity vs original turned out to be 0.76 fold.

B13: the fold difference in affinity vs original is 0.75 fold.

Consider B14, for which the fold affinity vs original stood at 0.75 fold.

For B15, the fold difference in affinity vs original worked out at 0.08 fold.

For B16, the fold affinity vs original came out at 0.77 fold.

Consider B17, for which the fold affinity vs original turned out to be 0.84 fold.

Consider B18, for which the fold difference in affinity vs original was 0.76 fold.

Regarding B19, the fold difference in affinity vs original stood at 0.88 fold.

Take B20: the fold difference in affinity vs original was determined as 0.91 fold.

With B21, the fold difference in affinity vs original was found to be 0.68 fold.

Take B22: the fold affinity vs original is 0.79 fold.

Turning to B23, the fold affinity vs original worked out at 0.77 fold.

With B24, the fold difference in affinity vs original came out at 0.81 fold.

Take B25: the fold affinity vs original amounted to 0.05 fold.
